According to US20050085420A1, “Method of modulating apoptosis and compositions thereof” (priority 2003, published 2005):
Numbering of substitutions follows the chain as printed. In names and notes the source's numbering stands.

How the values were obtained:
[1] = system: BAK-X complex; assay: DSS cross-linking of BAK-X complex in FL5.12 cells treated with death stimuli; assay type: cell-based; conditions: TNFα plus cyclohexamide 5 hours, etoposide (VP16) 24 hours, 10 mM DSS
Method: FIG. 1B is an illustration depicting the treatment of FL5.12 cells with either TNFα plus cyclohexamide (CHX) for 5 hours (lane 3), etoposide (VP16) for 24 hours (lane 4), or deprived of IL-3 for 18 hours (lane 5), followed by incubation with 10 mM DSS. The BAK-X complex was detected in whole cell lysates by an immunoblot developed with anti-BAK antibody.
Protein crosslinkers were used to search for a candidate protein that interacts with BAK at the mitochondria in viable cells. A ˜60 kD mobility-shifted complex immunoreactive with an antibody (Ab) to BAK was detected after treatment of purified mitochondria (FIG. 1A) or viable whole cells (FIG. 1B) with the crosslinker disuccinimidyl suberate (DSS). This presumed complex between BAK and a candidate ˜35 kD interacting protein was designated “BAK-X.” The ˜60 kD BAK-X complex was distinct in size as compared to BAK homo-oligomers detected by bismaleimidohexane (BMH) crosslinking (FIG. 1A). The same sized BAK complex was detected in multiple cell lines and in normal liver prior to death stimuli (FIG. 1C). The BAK-X complex was lost when mitochondria were treated with tBID (FIG. 1A, C) or cells were treated with death stimuli including TNFα, etoposide, or withdrawal of survival factor (FIG. 1B). Expression of BH3-only members BAD, BIM, or tBID killed cells and diminished the amount of BAK-X complex (FIG. 1D). […]

[2] = molecular target: T1, BAK-X complex (Mus musculus, UniProt O08734+Q60930); assay: BAK-X complex after retroviral transduction of BH3-only members in wt MEFs; assay type: cell-based; conditions: 24 hours following retroviral transduction, DSS
T1 construct: isolation of mitochondria (50 μg) from wild-type (wt) mouse embryonic fibroblasts (MEFs); endogenous in cells; host or cells: mitochondria from wt MEFs
T1 sequence (O08734 2-209 limits assumed): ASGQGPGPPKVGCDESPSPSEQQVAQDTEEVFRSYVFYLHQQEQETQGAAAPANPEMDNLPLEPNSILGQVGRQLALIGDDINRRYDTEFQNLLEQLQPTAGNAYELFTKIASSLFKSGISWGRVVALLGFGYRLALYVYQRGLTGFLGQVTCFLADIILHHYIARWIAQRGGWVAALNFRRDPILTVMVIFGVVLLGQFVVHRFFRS
T1 sequence (Q60930 1-295): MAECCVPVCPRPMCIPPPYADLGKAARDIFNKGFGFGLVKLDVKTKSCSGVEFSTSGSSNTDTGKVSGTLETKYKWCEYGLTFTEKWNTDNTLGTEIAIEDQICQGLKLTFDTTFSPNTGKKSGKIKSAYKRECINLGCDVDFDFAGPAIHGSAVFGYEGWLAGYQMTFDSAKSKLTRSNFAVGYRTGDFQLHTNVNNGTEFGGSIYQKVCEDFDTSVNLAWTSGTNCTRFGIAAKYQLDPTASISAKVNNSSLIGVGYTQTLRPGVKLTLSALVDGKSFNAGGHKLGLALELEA
Method: FIG. 1D is a photograph depicting isolated mitochondria from wt MEFs, in which the isolated mitochondria were treated with DSS 24 hours following retroviral transduction of tBID, BIM, or BAD. The BAK-X complex was detected by an immunoblot developed with an anti-BAK antibody.
(§1) Murine vdac1, vdac2, N-terminal HA-tagged vdac2, N-terminal-HA tagged Bax or Bak, as well as wild type and mutant Bak (mBH1, W122A, G123E, R124A; mBH3, L75E) were cloned into the retroviral expression vector MSCV-IRES-GFP (pMIG). PcDNA3-tBID (wt and mutants) was described previously M. C. Wei et al., Genes Dev 14, 2060-71. (2000). Generation of amphotropic retroviruses and retroviral infection were described previously E. H. Cheng et al., Mol Cell 8, 705-11. (2001).
Protein crosslinkers were used to search for a candidate protein that interacts with BAK at the mitochondria in viable cells. […] Wei et al., Genes Dev 14, 2060-71. (2000).

[3] = system: wt MEFs; assay: Cell killing by expression of BH3-only members; assay type: cell-based, mouse; conditions: retroviral expression
[4] = molecular target: T1, BAK-X complex; assay: DSS cross-linking of BAK-X complex in isolated mitochondria, anti-BAK immunoblot; assay type: biochemical; conditions: liver mitochondria 50 μg, 5 μl in vitro transcribed-translated mutant tBID, 30° C. 30 min
Method: FIG. 1A is an illustration depicting isolation of mitochondria (50 μg) from wild-type (wt) mouse embryonic fibroblasts (MEFs). The isolated mitochondria were incubated with recombinant tBID protein (50 ng) at 30° C. for 30 min, followed by treatment with the cross-linkers disuccinimidyl suberate (DSS) (10 mM) or bismaleimidohexane (BMH) (10 mM) at room temperature for 30 minutes. Higher order BAK complexes were identified by immunoblot developed with an anti-BAK antibody.
FIG. 1C is an illustration depicting treatment of mitochondria (50 μg) isolated from mouse liver, Bal17, Jurkat, and FL5.12 cells with 50 ng tBID protein at 30° C. for 30 min, followed by DSS cross-linking. The BAK-X complex was detected by an immunoblot developed with anti-BAK antibody.
FIG. 1E is a photograph depicting isolated liver mitochondria (50 μg) which were incubated with 5 μl of in vitro transcribed-translated wt or mutant tBID at 30° C. for 30 min, followed by DSS cross-linking. The BAK-X complex was detected by an immunoblot developed with anti-BAK antibody. […]
Protein crosslinkers were used to search for a candidate protein that interacts with BAK at the mitochondria in viable cells. A ˜60 kD mobility-shifted complex immunoreactive with an antibody (Ab) to BAK was detected after treatment of purified mitochondria (FIG. 1A) or viable whole cells (FIG. 1B) with the crosslinker disuccinimidyl suberate (DSS). […]

[5] = molecular target: T2, VDAC2 (Mus musculus, UniProt Q60930); assay: Anti-HA immunoprecipitation of HA-tagged VDAC2 with BH3-only molecules; assay type: binding; conditions: for interaction with HA-tagged VDAC2 (co-immunoprecipitation): mitochondria, anti-HA immunoprecipitation, 1% CHAPS (or 0.2% NP40)
T2 construct: expressed in transfected cells; host or cells: vdac1 -/-, vdac3 -/- mouse fibroblasts; wt or vdac2 -/- MEFs; Bax, Bak doubly deficient MEFs (retrovirus pMIG)
T2 sequence (Q60930 1-295): T1 sequence (Q60930 1-295)
Source text: as §1, with “(2001). Retroviral expression of each indicated protein was confirmed by immunoblot. […]” for “(2001).”
The strength of association between BIM-EL and VDAC2 was compared to the strength of the association, if any, between BIM-EL and BAK or BAX. Mitochondria isolated from Bax, Bak doubly deficient MEFs transduced with retrovirus expressing N-terminal HA-tagged BAX, BAK, or VDAC2 were solubilized in 1% CHAPS or 0.2% NP-40 buffer, followed by anti-HA immunoprecipitation. The immunoprecipitates were analyzed by an immunoblot developed with anti-BIM. […] These findings indicate that BH3-only competition for VDAC2 frees BAK, which, in the absence of its specific inhibitor VDAC2, is prone to auto-activating homo-oligomerization. […]

[6] = system: Bax -/- MEFs; assay: Annexin-V cell death after retroviral expression of VDAC1 or VDAC2 in Bax -/- MEFs; assay type: cell-based, mouse; conditions: Bax -/- cells, retroviral expression, 1.2 μM staurosporine or 10 μg/ml etoposide, Annexin-V
Method: (§2) FIG. 3A are two graphs illustrating Bax -/- or Bak -/- MEFs at 2 days following retroviral expression of VDAC1, VDAC2, or GFP (MIG vector control), wherein the Bax -/- or Bak -/- MEFs were treated with 1.2 μM staurosporine (STS). Cell death was quantitated by flow cytometric detection of Annexin-V staining at indicated time points. Values shown are mean ±1 SD of three independent experiments.
(§3) FIG. 3B is a histogram depicting Bax -/- or Bak -/- MEFs at 2 days following retroviral expression of VDAC2 or GFP (MIG vector control), wherein the Bax -/- or Bak -/- MEFs were infected with tBID-expressing retrovirus. Cell death was quantitated by flow cytometric detection of Annexin-V staining at 24 hr. Values shown are mean ±1 SD of three independent experiments.
as §2, with “6” for “3A”, “that depict” for “illustrating”, “10 μg/ml etoposide.” for “1.2 μM staurosporine (STS).”
(§4) Previous studies have shown that cells doubly deficient for BAX and BAK are resistant to intrinsic death stimuli, whereas cells singly deficient for BAX or BAK are still susceptible (M. C. Wei et al., Science 292, 727-30. (2001)). As VDAC2 interacts with BAK but not BAX, the ability of VDAC2 to modulate apoptosis mediated by BAK or BAX was tested. According to one hypothesis, VDAC2 might function as an inhibitor of BAK or VDAC2 itself might function as a proapoptotic factor once released from BAK. To address these alternatives VDAC 1 or VDAC2 was expressed in Bax -/- or Bak -/- singly deficient mouse embryonic fibroblasts (MEFs) followed by treatment with staurosporine or etoposide. […] Expression of VDAC2 inhibited tBID-induced apoptosis of Bax -/- cells but not Bak -/- cells, further supporting a selective role for VDAC2 in negatively regulating BAK-dependent apoptosis (FIG. 3B).

[7] = system: Bak -/- MEFs; assay: Annexin-V cell death after retroviral expression of VDAC1 or VDAC2 in Bak -/- MEFs; assay type: cell-based, mouse; conditions: Bak -/- cells, retroviral expression, 1.2 μM staurosporine or 10 μg/ml etoposide, Annexin-V
Method: as §2, §3
as §2, with “6” for “3A”, “that depict” for “illustrating”, “10 μg/ml etoposide.” for “1.2 μM staurosporine (STS).”
as §4

## COc1cc([C@@H]2c3cc4c(cc3[C@@H](O[C@@H]3O[C@@H]5CO[C@@H](C)O[C@H]5[C@H](O)[C@H]3O)[C@H]3COC(=O)[C@H]23)OCO4)cc(OC)c1O [etoposide]
[1]
  BAK-X complex when cells were treated with death stimuli: lost

## TNFα
[1]
  BAK-X complex when cells were treated with death stimuli: lost

B1: BAD: BH3-only BCL-2 family member, retrovirally expressed (protein, UniProt Q61337 1-204, looked up)
Bcl2-associated agonist of …: MGTPKQPSLAPAHALGLRKSDPGIRSLGSDAGGRRWRPAAQSMFQIPEFEPSEQEDASATDRGLGPSLTEDQPGPYLAPGLLGSNIHQQGRAATNSHHGGAGAMETRSRHSSYPAGTEEDEGMEEELSPFRGRSRSAPPNLWAAQRYGRELRRMSDEFEGSFKGLPRPKSAGTATQMRQSAGWTRIIQSWWDRNLGKGGSTPSQ
[2]
  amount of BAK-X complex: diminished
[3]
  cell killing on expression: killed cells

B2: BIM: BH3-only BCL-2 family member, retrovirally expressed (protein, UniProt O54918 1-196, looked up)
Bcl-2-like protein 11: MAKQPSDVSSECDREGGQLQPAERPPQLRPGAPTSLQTEPQGNPDGEGDRCPHGSPQGPLAPPASPGPFATRSPLFIFVRRSSLLSRSSSGYFSFDTDRSPAPMSCDKSTQTPSPPCQAFNHYLSAMASIRQSQEEPEDLRPEIRIAQELRRIGDEFNETYTRRVFANDYREAEDHPQMVILQLLRFIFRLVWRRH
[2]
  amount of BAK-X complex: diminished
[3]
  cell killing on expression: killed cells

B3: mIII.1: mutant tBID with BH3 mutation mIII.1, still capable of binding BAK (protein)
chain: GSQASRSFNQGRIEPDSESQEEIIHNIARHLAQIGDEAAHNIQPTLVRQLAAQFMNGSLSEEDKRNCLAKALDEVKTAFPRDMENDKAMLIMTMLLAKKVASHAPSLLRDVFHTTVNFINQNLFSYVRNLVRNEMD
[4]
  dissociation of the BAK-X complex by mutant tBID: caused dissociation

B4: mutant tBID mIII.4 (G94E) (other, UniProt P70444 60-195, looked up)
chain: B3 chain with G35E, A38M, A39D
notes: domain: p15 tBID; also called m111.4 mutant; m l 11.4
[4]
  dissociation of the BAK-X complex by mutant tBID: not
[5]
  interaction with HA-tagged VDAC2 (co-immunoprecipitation): did not recognize VDAC2

B5: VDAC1: murine VDAC1 isoform, retrovirally expressed (protein)
chain: AVPPTYADLGKSARDVFTKGYGFGLIKLDLKTKSENGLEFTSSGSANTETTKVNGSLETKYRWTEYGLTFTEKWNTDNTLGTEITVEDQLARGLKLTFDSSFSPNTGKKNAKIKTGYKREHINLGCDVDFDIAGPSIRGALVLGYEGWLAGYQMNFETSKSRVTQSNFAVGYKTDEFQLHTNVNDGTEFGGSIYQKVNKKLETAVNLAWTAGNSNTRFGIAAKYQVDPDACFSAKVNNSSLIGLGYTQTLKPGIKLTLSALLDGKNVNAGGHKLGLGLEFQA
[6]
  apoptosis after staurosporine or etoposide: no substantial effect
[7]
  apoptosis after staurosporine or etoposide: no substantial effect

B6: BIM-EL: BH3-only molecule BIM-EL (protein)
chain: B2 Bcl-2-like protein 11
[5]; Bax, Bak doubly deficient MEFs with HA-tagged BAX, BAK or VDAC2, 1% CHAPS or 0.2% NP-40
  strength of association with VDAC2 compared to BAX or BAK: associate more strongly with VDAC2 than BAX or BAK
[5]
  interaction with HA-tagged VDAC2 (co-immunoprecipitation): strong interaction
